{"source": "patent US20200131227A1", "about": "“POLYPEPTIDE WITH TUMOUR BINDING ACTIVITY” (RUPRECHT-KARLS-UNIVERSITÄT HEIDELBERG, priority 2017, published 2020)", "key": {"ITGαvβ3": {"target": "ITGαvβ3 (Homo sapiens, UniProt P05106+P06756)", "sequence (P06756 31-992 limits assumed)": "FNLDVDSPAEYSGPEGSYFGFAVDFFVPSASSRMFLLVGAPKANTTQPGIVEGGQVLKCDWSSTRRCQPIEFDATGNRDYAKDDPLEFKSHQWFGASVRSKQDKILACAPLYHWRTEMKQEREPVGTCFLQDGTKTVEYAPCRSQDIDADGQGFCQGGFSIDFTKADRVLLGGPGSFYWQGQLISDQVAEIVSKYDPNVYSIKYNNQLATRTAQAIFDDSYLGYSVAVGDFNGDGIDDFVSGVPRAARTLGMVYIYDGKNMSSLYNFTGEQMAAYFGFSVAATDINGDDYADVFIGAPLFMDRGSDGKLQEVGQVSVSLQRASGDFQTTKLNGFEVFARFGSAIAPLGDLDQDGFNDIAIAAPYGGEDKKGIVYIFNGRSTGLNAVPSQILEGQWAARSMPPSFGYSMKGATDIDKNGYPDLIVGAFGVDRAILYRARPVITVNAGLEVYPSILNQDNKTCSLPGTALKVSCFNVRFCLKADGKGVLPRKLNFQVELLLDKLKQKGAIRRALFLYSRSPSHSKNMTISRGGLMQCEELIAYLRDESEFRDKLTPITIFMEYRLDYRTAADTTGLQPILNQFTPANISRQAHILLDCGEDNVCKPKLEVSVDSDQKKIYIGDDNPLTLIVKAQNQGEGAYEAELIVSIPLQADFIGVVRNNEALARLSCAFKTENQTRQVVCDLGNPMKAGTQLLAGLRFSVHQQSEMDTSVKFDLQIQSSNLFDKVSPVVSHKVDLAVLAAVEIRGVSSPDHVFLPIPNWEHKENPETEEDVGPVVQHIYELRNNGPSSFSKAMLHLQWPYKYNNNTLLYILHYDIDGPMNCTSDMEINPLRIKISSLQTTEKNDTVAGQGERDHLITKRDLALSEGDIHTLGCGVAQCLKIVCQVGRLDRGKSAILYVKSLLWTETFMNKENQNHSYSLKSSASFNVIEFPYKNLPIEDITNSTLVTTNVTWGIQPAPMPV", "sequence (P05106 27-718 limits assumed)": "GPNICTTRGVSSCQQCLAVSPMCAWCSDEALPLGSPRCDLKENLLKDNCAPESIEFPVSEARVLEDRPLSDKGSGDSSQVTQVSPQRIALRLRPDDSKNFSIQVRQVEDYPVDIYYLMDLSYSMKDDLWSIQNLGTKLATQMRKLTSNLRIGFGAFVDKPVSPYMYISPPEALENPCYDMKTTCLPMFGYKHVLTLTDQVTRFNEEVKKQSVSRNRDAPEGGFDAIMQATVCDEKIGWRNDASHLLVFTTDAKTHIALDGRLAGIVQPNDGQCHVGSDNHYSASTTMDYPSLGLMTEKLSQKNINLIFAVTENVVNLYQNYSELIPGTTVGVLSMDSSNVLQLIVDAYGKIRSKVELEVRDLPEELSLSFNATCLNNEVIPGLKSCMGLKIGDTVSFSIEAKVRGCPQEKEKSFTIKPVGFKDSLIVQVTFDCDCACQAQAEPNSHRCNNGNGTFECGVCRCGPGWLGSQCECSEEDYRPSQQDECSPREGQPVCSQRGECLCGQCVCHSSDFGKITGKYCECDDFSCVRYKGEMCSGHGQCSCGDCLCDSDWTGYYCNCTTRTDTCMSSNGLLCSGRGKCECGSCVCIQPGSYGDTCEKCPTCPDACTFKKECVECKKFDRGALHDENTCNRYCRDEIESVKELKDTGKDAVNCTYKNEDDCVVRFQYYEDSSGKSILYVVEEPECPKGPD", "experiment": "Surface plasmon resonance assay (SPR), ITGαvβ3", "type": "binding", "settings": "SPR", "protocol": "(§1) Assessment of the binding affinity was performed on a BiaCore X100 (GE Healthcare). To avoid denaturation of the heterodimer during amide activation ITGαvβ6 and ITGαvβ3, respectively, were used as analytes and SFITGv6 was immobilized at its N-terminus on a C1 sensor Chip (BR-1005-35, GE Healthcare) using a manual amine coupling protocol. Briefly, after activation of the sensor chip surface with a solution of EDC 0.4 M/NHS 0.1 M for 5 min a 100 μM peptide dissolved in HBS-EP running buffer (0.1 M HEPES, 30 mM EDTA, 1.5 M NaCl, 0.5% surfactant P20, pH 7.2) was immobilized with a contact time of 30 sec until a loading level of 18 response units (RU) was obtained. […] The SPR-sensogram data were evaluated with the BiaCore evaluation software. The dissociation constant (KD) was determined by a 1:1 Langmuir model fit of the SPR-sensograms.\nas §1, with “SFLAP3” for “peptide”, “to obtain” for “until”, “12” for “18”, “(RU).” for “(RU) was obtained.”, “SPR sensogram” for “SPR-sensogram”, “SPR sensograms.” for “SPR-sensograms.”"}, "[1]": {"experiment": "Serum stability assay (radio-HPLC)", "type": "in vitro ADME, human", "settings": "radio-HPLC, 37° C., up to 24 hours", "protocol": "Five MBq of the purified ^131I-radiolabeled peptide was incubated in 300 μL human serum at 37° C. After different time intervals (15 min to 24 hours) 20 μL serum was precipitated with 40 μL acetonitrile. The stability of the labeled peptide in the supernatant was monitored by radio-HPLC at selected time points using a chromolith performance RP18ec column (3 mm×100 mm) equipped with a gamma detector (Packard COBRA™ Auto-Gamma, GMI). Separation condition was a gradient of 0% to 60% aqueous acetonitrile supplemented with 0.1% TFA over 10 min with a flow rate of 2 mL/min."}, "HNO399 xenografts": {"test_system": "HNO399 xenografts", "experiment": "Biodistribution, HNO399 xenografts", "type": "in vivo, mice"}, "HNO223 xenografts": {"test_system": "HNO223 xenografts", "experiment": "Biodistribution, HNO223 xenografts", "type": "in vivo, mice"}, "[2]": {"test_system": "HNSCC tumor sections (HNO97 xenograft, HNO444, HNO399, HNO210)", "experiment": "Histochemical peptide staining of HNSCC tumor cryosections", "set-up": "species or system human", "settings": "biotinylated PEG(12)-peptide, 10^-5 M", "protocol": "Staining with the biotinylated PEG(12)-SFITGv6 peptide was performed on acetone-fixed cryosections (5 μm) of tumor tissues after blocking of unspecific binding using the Avidin/Biotin Blocking Kit (SP-2001, Vector Laboratories). A stock solution of the lyophilized peptide was prepared by dilution in 5% aqueous DMSO. Slices were incubated overnight at 4° C. with 10^-5 M peptide concentration in antibody diluent (DAKO). Detection of bound peptide was carried out with the Vectastain Elite ABC Kit (PK-6100, Vector Laboratories) according to manufacturer's protocol. Peptide specificity was ensured by a scrambled (GRD) PEG(12)-SFITGv6 derivate, the somatostatin receptor ligand DOTATOC and negative controls (without peptide or primary antibody) Staining results were assessed by bright field microscopy (BX50) with the SC30 camera and the cell Sense software (all Olympus).\nImmunohistochemical stainings were performed by use of the biotinylated PEG(12)-labled peptides (SFITGv6, SFLAP3) on 5 μm acetone-fixed tumor tissue cryosections. To prevent background staining we initially applied the Avidin/Biotin Blocking Kit (SP-2001, Vector Laboratories). The lyophilized peptides were diluted in 5% aqueous DMSO preparing a 1 mM Stock solution. The HNSCC cryosections were incubated with 10^−5 M peptide concentration in antibody diluent (DAKO) at 4° C. overnight. To detect bound peptide the Vectastain Elite ABC Kit (PK-6100, Vector Laboratories) was applied according to manufacturer's protocol. Peptide binding specificity was ensured by use of a peptide derivate (scrambled control) and negative controls (without peptide). Due to instability of the peptide binding staining results were assessed on the same day by bright field microscopy (BX50) with the SC30 camera and the cell Sense software (all Olympus)."}, "[3]": {"target": "integrin αvβ6 (ITGαvβ6) as expressed on human carcinoma cell lines and tumor tissue sections (human) (UniProt P06756)", "sequence (P06756 31-1048, chain 1 of 2)": "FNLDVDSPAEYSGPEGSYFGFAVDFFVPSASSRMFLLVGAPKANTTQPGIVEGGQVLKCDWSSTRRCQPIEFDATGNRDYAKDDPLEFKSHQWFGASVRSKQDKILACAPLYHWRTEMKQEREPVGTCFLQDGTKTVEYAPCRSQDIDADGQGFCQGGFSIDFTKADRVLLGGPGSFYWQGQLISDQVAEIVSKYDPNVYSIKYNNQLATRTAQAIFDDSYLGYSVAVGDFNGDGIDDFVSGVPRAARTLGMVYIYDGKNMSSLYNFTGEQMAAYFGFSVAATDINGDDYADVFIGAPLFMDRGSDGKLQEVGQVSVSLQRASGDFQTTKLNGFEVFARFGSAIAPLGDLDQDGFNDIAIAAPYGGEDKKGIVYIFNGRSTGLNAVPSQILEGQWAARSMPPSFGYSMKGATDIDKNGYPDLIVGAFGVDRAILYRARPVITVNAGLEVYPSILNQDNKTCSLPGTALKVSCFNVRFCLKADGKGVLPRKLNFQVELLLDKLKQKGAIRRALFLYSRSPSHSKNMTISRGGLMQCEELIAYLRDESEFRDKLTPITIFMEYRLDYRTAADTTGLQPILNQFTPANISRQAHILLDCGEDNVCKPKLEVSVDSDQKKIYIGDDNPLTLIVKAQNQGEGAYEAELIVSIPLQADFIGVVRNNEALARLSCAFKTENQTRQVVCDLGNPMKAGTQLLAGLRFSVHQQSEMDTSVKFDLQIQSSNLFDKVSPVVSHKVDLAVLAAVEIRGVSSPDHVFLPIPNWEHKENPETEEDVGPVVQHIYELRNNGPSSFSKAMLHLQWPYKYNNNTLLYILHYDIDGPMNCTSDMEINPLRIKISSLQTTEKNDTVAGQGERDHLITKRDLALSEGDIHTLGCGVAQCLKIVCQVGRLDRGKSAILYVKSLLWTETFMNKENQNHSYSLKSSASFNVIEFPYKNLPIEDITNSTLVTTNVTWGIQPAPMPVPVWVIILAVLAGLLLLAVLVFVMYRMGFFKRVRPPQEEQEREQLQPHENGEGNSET", "sequence (P18564 22-788, chain 2 of 2, further chain)": "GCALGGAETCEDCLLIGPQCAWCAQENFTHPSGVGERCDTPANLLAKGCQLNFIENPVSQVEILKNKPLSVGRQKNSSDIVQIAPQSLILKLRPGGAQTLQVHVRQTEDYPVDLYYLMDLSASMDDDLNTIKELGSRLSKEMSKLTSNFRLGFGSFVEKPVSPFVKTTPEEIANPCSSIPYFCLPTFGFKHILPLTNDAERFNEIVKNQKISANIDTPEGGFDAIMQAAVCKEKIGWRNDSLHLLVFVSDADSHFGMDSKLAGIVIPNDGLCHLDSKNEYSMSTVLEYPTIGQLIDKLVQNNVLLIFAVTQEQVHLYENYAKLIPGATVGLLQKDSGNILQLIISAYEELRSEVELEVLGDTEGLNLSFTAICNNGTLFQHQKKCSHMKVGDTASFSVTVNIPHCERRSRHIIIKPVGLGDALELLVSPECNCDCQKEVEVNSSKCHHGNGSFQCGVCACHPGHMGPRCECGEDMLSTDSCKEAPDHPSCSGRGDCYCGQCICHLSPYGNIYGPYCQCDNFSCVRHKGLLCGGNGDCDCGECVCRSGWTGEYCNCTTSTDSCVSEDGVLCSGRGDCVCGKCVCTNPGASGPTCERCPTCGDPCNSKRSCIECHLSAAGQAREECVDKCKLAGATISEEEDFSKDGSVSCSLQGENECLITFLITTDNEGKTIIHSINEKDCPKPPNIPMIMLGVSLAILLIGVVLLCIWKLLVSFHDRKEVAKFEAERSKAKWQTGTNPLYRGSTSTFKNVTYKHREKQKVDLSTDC", "experiment": "peptide competing with 125I-SFITGv6 on HNO97 cells, 60 min"}, "[4]": {"target": "T1, integrin αvβ6 (ITGαvβ6) as expressed on human carcinoma cell lines and tumor tissue sections (human, UniProt P06756 31-1048; P18564 22-788)", "T1 construct": "whole, on cells; also called ITGAVB6; ITGαvβ6-expressing HNO97 cells", "T1 sequence (P06756 31-1048, chain 1 of 2)": "as the sequence (P06756 31-1048, chain 1 of 2) above", "T1 sequence (P18564 22-788, chain 2 of 2)": "as the sequence (P18564 22-788, chain 2 of 2, further chain) above", "experiment": "125I-peptide binding to HNO97 cells, 60 min"}, "[5]": {"target": "T1, integrin αvβ6 (ITGαvβ6) as expressed on …", "experiment": "125I-peptide binding to HNO199 cells, 60 min"}, "[6]": {"target": "T1, integrin αvβ6 (ITGαvβ6) as expressed on …", "experiment": "125I-peptide binding to HNO210 cells, 60 min"}, "[7]": {"target": "T1, integrin αvβ6 (ITGαvβ6) as expressed on …", "experiment": "125I-peptide binding to HNO223 cells, 60 min"}, "[8]": {"target": "T2, ITGαvβ3 heterodimer (analyte in SPR) (UniProt P06756 31-992; P05106 27-718, limits assumed)", "T2 construct": "Soluble heterodimer used as analyte over immobilised peptide; construct not described", "T2 sequence (P06756 31-992 limits assumed, chain 1 of 2)": "as the sequence (P06756 31-992 limits assumed) above", "T2 sequence (P05106 27-718 limits assumed, chain 2 of 2)": "as the sequence (P05106 27-718 limits assumed) above", "experiment": "SPR, αvβ3 heterodimer against ITGαvβ6 on immobilised SFLAP3"}, "[9]": {"target": "T1, integrin αvβ6 (ITGαvβ6) as expressed on …", "experiment": "competition of unlabeled SFLAP3 with 125I-SFLAP3 on HNO97 cells"}, "[10]": {"target": "T1, integrin αvβ6 (ITGαvβ6) as expressed on …", "experiment": "competition of unlabeled SFLAP3 with 125I-SFLAP3 on HNO223 cells"}, "[11]": {"target": "T1, integrin αvβ6 (ITGαvβ6) as expressed on …", "experiment": "competition of unlabeled SFLAP3 with 125I-SFLAP3 on HNO399 cells"}, "[12]": {"target": "T2, ITGαvβ3 heterodimer (analyte in SPR)", "experiment": "SPR (BiaCore X100), peptide immobilised on C1 chip, ITGαvβ3 as analyte, 1:1 Langmuir fit; SPR, αvβ3 as analyte"}, "[13]": {"target": "T3, ITGαvβ6 heterodimer (analyte in SPR) (UniProt P06756 31-992; P18564 22-707, limits assumed)", "T3 construct": "Soluble heterodimer used as analyte over immobilised peptide; construct not described; also called heterodimeric receptor ITGαvβ6", "T3 sequence (P06756 31-992 limits assumed, chain 1 of 2)": "as the sequence (P06756 31-992 limits assumed) above", "T3 sequence (P18564 22-707 limits assumed, chain 2 of 2)": "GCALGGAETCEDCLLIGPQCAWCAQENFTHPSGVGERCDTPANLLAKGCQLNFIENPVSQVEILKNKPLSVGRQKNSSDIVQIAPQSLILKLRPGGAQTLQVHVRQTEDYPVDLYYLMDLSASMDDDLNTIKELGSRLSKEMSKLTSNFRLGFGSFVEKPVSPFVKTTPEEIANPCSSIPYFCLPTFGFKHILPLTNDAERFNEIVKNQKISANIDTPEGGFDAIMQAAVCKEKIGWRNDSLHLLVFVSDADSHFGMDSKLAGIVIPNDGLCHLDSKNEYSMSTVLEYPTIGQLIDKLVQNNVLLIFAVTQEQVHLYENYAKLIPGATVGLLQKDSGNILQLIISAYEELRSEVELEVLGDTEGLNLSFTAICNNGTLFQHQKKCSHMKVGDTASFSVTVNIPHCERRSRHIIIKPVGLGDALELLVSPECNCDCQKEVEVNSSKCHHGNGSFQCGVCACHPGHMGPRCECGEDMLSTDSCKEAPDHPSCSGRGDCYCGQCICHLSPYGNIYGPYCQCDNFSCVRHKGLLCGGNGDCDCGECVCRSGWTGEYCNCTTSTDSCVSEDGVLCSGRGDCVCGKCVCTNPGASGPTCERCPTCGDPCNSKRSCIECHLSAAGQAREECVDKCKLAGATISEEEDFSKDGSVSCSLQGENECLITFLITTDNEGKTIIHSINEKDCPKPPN", "experiment": "SPR (BiaCore X100), peptide immobilised on C1 chip, ITGαvβ6 as analyte, 1:1 Langmuir fit; SPR, ITGαvβ6 as analyte"}, "[14]": {"target": "T1, integrin αvβ6 (ITGαvβ6) as expressed on …", "experiment": "unlabeled peptide competing with 125I-SFLAP3 on HNSCC cell lines (HNO97, HNO399, HNO223), mean; mean over HNSCC cell lines"}, "[15]": {"target": "T2, ITGαvβ3 heterodimer (analyte in SPR)", "experiment": "SPR, ITGαvβ3 against ITGαvβ6 on immobilised SFITGv6"}, "[16]": {"target": "T1, integrin αvβ6 (ITGαvβ6) as expressed on …", "experiment": "unlabeled peptide competing with 125I-SFITGv6 on HNO97 cells, 60 min; HNO97 cells, cell competition IC50"}, "[17]": {"target": "T2, ITGαvβ3 heterodimer (analyte in SPR)", "experiment": "SPR (BiaCore X100), peptide immobilised on C1 chip, ITGαvβ3 as analyte, 1:1 Langmuir fit; SPR, ITGαvβ3 as analyte"}, "[18]": {"target": "T1, integrin αvβ6 (ITGαvβ6) as expressed on …", "experiment": "unlabeled peptide competing with 125I-SFITGv6 on HNSCC cell lines (HNO97, HNO399, HNO223), mean; mean over HNSCC cell lines"}, "[19]": {"target": "T1, integrin αvβ6 (ITGαvβ6) as expressed on …", "experiment": "unlabeled peptide (10^-10 to 10^-4 M) competing with the 125I-labeled peptide on HNO97 cells"}}, "note": "“Also recorded” adds a separate entry of the source. Where a SMILES comes first, the peptide text is derived from it. Bridges are numbered along the chain shown (N, C = ends). Where no end group is shown, it is not given here."}
{"molecule": "CC(C)C[C@@H]1NC(=O)[C@H](CC(=O)O)NC(=O)CNC(=O)[C@H](CCCNC(=N)N)NC(=O)CNC(=O)[C@H]([C@@H](C)O)NC(=O)[C@@H](NC(=O)[C@H](CCCNC(=N)N)NC(=O)CN)CSSC[C@@H](C(=O)N[C@@H](Cc2ccc(O)cc2)C(=O)N2CCC[C@H]2C(=O)N[C@@H](CC(=O)O)C(=O)O)NC(=O)[C@H](CC(C)C)NC(=O)[C@H](CCCNC(=N)N)NC(=O)CNC1=O", "note": "[SFLAP3, H2N-G-R-C1-T-G-R-G-D-L-G-R-L-C2-Y-P-D-COOH] (H-GRCTGRGDLGRLCYPD-OH; disulfide 3-13)", "values": [{"measurement": "lower affinity for ITGαvβ3 than for ITGαvβ6", "setting": "ITGαvβ3", "value": 10, "unit": "fold"}, {"measurement": "proteolytic stability in human serum", "setting": "[1]", "value": "no degradation over a 24 hours; also recorded: shown for up to 24 hours"}, {"measurement": "maximum accumulation in the tumor lesion", "setting": "HNO399 xenografts; 60 min post injection", "value": 3.6, "unit": "% ID/g"}, {"measurement": "accumulation in the tumor after decrease", "setting": "HNO399 xenografts; 360 min after injection", "value": "~2", "unit": "%"}, {"measurement": "maximum accumulation in the tumor lesion", "setting": "HNO223 xenografts; 60 min post injection, HNO233-xenografted as printed", "value": 3.4, "unit": "% ID/g"}, {"measurement": "accumulation in the tumor after decrease", "setting": "HNO223 xenografts; 360 min after injection", "value": "~2", "unit": "%"}, {"measurement": "histochemical peptide staining result", "setting": "[2]", "value": "slightly fainter staining capacity"}]}
{"molecule": "A20FMDV2 (peptide)", "values": [{"measurement": "IC50", "setting": "[3]", "value": 3.2, "unit": "nM"}]}
{"molecule": "GRCTGRGDLGRLCYPD (disulfide 3-13 (inferred); not fully specified (C-terminus); also: 125I on the tyrosine in labelled tracer form)", "note": "[SFLAP3]", "values": [{"measurement": "percent of applied dose bound per 10^6 cells", "setting": "[4]", "value": 24.7, "unit": "%"}, {"measurement": "percent of applied dose bound per 10^6 cells", "setting": "[5]", "value": 19.7, "unit": "%"}, {"measurement": "percent of applied dose bound per 10^6 cells", "setting": "[6]", "value": 10.6, "unit": "%"}, {"measurement": "percent of applied dose bound per 10^6 cells", "setting": "[7]", "value": 17.6, "unit": "%"}, {"measurement": "fold lower affinity than for ITGαvβ6", "setting": "[8]", "value": 10, "unit": "fold"}, {"measurement": "IC50", "setting": "[9]", "value": 4.7, "unit": "nM"}, {"measurement": "IC50", "setting": "[10]", "value": 2.56, "unit": "nM"}, {"measurement": "IC50", "setting": "[11]", "value": 3.25, "unit": "nM"}, {"measurement": "Kd", "setting": "[12]", "value": 185, "unit": "nM"}, {"measurement": "Kd", "setting": "[13]", "value": 7.4, "unit": "nM"}, {"measurement": "IC50", "setting": "[14]", "value": 3.5, "unit": "nM"}]}
{"molecule": "GRCTFRGDLMQLCYPD (disulfide 3-13 (inferred); not fully specified (C-terminus); also: 125I on the tyrosine in labelled tracer form, Synthetic SFTI-1 derivate)", "note": "[SFITGv6]", "values": [{"measurement": "percent of applied dose bound per 10^6 cells", "setting": "[7]", "value": 13.5, "unit": "%"}, {"measurement": "fold lower affinity than for ITGαvβ6", "setting": "[15]", "value": 10, "unit": "fold"}, {"measurement": "IC50", "setting": "[16]", "value": 16.1, "unit": "nM"}, {"measurement": "Kd", "setting": "[17]", "value": 185, "unit": "nM"}, {"measurement": "IC50", "setting": "[18]", "value": 14.1, "unit": "nM"}]}
{"molecule": "GRCTFRGDKMQLCYPD (disulfide 3-13 (inferred); also: 125I on the tyrosine in labelled tracer form, Originally selected peptide of the SFTI8Ph library)", "note": "[SFPF-10]", "values": [{"measurement": "percent of applied dose bound per 10^6 cells", "setting": "[4]", "value": 7.2, "unit": "%"}, {"measurement": "percent of applied dose bound per 10^6 cells", "setting": "[5]", "value": 3.1, "unit": "%"}, {"measurement": "percent of applied dose bound per 10^6 cells", "setting": "[6]", "value": 5, "unit": "%"}, {"measurement": "percent of applied dose bound per 10^6 cells", "setting": "[7]", "value": 11, "unit": "%"}, {"measurement": "IC50", "setting": "[19]", "value": 18, "unit": "nM"}]}
